Laboratory results: patent publication US5770430, “Cellular injury response element and uses thereof” (Research Development Foundation)

Molecular target: Sp1 (Homo sapiens, UniProt P08047 P08047:2-785)
Test: EMSA; poly dI/dC, Mg, Zn, room temperature
Conditions: label: 32P
Protocol: 50,000 CPM of the cellular injury response element, 1 μg poly dI/dC, 10 μg nuclear extract or 2 footprinting units of human Sp1 protein (Promega, Madison, Wis.) were suspended in 12.5 mM HEPES, pH 7.8, 50 mM KCl, 6.25 mM MgCl_2, 5 μM ZnSO_4, 10% glycerol, and 0.05% Nonidet P-40 and incubated for 30 minutes at room temperature. The bands were separated on a 4% polyacrylamide/0.5 X TBE (45 mM Tris-borate, […]) gel, dried and were visualized using the Molecular Imager System (Bio-Rad, Hercules, Calif.). Supershift assays were performed as above with the addition of […] anti-Sp1 antibody (PEP2, Santa Cruz Biotechnology, Inc.) or non-specific rabbit antibody to the reaction mixture after the 30 minute incubation and incubating for an additional 30 minutes.
Nuclear extracts were incubated with ^32P-labeled cellular injury response element and separated on a 0.5X TBE/4% polyacrylamide gel. […] However, no shift was observed when nuclear extracts were incubated with the Sp 1-mutant cellular injury response element (labeled A in FIGS. 7 and 8; a non-specifically shifted band is labeled A in both FIGS. 7 and 8). Thus, the binding of the protein responsible for the gel shift of the cellular injury response element is dependent upon the presence of functional Sp1 site within the cellular injury response element.

Sp1, sequence (P08047 2-785, one chain of several): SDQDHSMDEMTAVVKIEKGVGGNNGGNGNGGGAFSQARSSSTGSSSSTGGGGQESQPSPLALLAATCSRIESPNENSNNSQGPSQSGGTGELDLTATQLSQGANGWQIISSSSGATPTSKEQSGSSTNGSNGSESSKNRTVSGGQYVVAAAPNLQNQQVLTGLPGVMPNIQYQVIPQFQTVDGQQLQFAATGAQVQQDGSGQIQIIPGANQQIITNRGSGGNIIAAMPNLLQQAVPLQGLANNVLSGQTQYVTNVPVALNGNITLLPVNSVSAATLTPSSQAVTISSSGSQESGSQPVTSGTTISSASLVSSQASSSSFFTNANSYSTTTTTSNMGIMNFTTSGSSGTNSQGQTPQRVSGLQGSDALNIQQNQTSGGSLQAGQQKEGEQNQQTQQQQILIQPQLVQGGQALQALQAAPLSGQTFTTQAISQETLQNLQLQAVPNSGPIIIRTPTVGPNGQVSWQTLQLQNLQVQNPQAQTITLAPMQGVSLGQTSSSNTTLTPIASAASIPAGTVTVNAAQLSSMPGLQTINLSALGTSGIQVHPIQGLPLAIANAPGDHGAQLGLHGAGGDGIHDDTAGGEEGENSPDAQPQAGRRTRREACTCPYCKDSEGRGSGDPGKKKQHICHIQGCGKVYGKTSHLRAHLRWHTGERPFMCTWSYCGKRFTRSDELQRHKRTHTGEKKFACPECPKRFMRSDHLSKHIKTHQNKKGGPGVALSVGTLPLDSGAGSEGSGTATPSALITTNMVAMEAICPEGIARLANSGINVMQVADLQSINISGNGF

B1: CIRE (GADD153 -74 to -35) (dsDNA)
DNA 1: AGGCTCCTGGGTCCCGCCCCCCAAAAGAGGGGACGGGCC
DNA 2: GGCCCGTCCCCTCTTTTGGGGGGCGGGACCCAGGAGCCT
binding result: binds
